These are literature values, as cited in paper PMC12860355.

This series deals with TATA-binding protein (Homo sapiens) (UniProt P20226).
Chain of UniProt P20226 (P20226 whole entry): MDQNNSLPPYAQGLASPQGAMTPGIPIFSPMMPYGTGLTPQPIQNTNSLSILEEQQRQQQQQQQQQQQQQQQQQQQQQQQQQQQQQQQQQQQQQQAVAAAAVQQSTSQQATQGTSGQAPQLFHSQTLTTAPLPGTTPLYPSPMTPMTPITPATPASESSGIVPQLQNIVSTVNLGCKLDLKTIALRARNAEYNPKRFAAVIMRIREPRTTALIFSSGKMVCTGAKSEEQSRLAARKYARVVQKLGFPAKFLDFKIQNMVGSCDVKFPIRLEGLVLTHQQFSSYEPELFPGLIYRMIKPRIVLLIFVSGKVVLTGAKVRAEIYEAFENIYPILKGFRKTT

Importin 9 (from UniProt Q96P70): the Kd is 1 nM.

By Kd is commonly meant the equilibrium constant for the complex coming apart.
